Laboratory results as given in US7229788.

Tests used:
[1] = target: T1, SHELδ26A (SHEL lacking the sequence of exon 26A)
T1 chain: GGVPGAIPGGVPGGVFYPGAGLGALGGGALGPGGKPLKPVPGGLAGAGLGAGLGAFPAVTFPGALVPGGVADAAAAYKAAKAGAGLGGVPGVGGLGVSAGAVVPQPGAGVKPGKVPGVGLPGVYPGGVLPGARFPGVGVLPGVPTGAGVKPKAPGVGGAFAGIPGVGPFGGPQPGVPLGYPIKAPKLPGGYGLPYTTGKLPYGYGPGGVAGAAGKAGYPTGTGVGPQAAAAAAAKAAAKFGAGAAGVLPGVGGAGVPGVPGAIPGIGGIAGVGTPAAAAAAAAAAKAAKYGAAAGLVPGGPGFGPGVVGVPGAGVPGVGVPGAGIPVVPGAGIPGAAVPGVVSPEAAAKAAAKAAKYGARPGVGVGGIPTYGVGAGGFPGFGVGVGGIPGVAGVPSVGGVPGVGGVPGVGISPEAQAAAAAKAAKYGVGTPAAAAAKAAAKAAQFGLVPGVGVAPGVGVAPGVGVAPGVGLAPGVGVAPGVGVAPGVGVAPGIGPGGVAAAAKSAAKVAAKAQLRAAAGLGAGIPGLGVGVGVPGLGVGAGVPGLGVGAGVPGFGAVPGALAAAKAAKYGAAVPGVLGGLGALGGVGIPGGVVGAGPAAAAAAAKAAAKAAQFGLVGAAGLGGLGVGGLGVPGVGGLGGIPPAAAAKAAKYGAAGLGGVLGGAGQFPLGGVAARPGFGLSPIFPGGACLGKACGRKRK

[2] = target: T2, serine protease site peptide (SPS-peptide), N-…-C
T2 chain: KAQLRAAAGLGAGI

[3] = target: T3, SHEL (synthetic human elastin; recombinant human tropoelastin splice form)
T3 chain: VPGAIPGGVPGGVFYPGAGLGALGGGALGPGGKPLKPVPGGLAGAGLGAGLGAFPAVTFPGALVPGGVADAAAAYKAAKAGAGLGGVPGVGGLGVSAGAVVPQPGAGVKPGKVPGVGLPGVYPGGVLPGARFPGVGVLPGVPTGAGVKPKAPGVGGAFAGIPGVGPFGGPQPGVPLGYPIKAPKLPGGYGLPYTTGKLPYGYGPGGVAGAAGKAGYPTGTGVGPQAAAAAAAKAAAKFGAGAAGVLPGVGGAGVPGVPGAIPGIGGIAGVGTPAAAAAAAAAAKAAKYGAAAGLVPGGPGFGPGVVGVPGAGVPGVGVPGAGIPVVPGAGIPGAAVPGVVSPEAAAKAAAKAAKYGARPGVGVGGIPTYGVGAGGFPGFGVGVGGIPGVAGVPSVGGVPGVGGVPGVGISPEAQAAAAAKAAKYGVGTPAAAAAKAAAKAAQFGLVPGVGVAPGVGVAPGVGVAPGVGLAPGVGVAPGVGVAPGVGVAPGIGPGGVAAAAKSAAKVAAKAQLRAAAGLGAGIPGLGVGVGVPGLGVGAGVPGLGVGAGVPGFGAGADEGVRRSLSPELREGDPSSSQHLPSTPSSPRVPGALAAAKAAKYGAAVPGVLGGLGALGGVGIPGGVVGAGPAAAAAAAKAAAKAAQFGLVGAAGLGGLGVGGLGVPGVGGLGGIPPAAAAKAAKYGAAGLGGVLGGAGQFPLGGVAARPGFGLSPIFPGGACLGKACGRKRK

B1: human leukocyte elastase (HLE) (Sigma) (protein)
chain: IVGGRRARPHAWPFMVSLQLRGGHFCGATLIAPNFVMSAAHCVANVNVRAVRVVLGAHNLSRREPTRQVFAVQRIFENGYDPVNLLNDIVILQLNGSATINANVQVAQLPAQGRRLGNGVQCLAMGWGLLGRNRGIASVLQELNVTVVTSLCRRSNVCTLVRGRQAGVCFGDSGSPLVCNGLIHGIASFVRGGCASGLYPDAFAPVAQFVNWIDSIIQ
B1 was tested, and the “degradation of SHELδ26A by human leukocyte elastase, SDS-PAGE” value [1] was “SHELδ26A produced a similar profile but with a series of fragments appearing 4 kDa smaller”, the “amount of full-length SHEL after HLE digestion with SPS-peptide, SDS-PAGE and densitometry” value [2] was “SPS-peptide also resulted in more full-length SHEL using thrombin and HLE but to a lesser extent” and the “degradation of SHEL by human leukocyte elastase, SDS-PAGE” value [3] was “numerous fragments were seen with two prominent fragments at 32 and 18 kDa”.

B2: human plasmin (Sigma) (protein)
chain: KVYLSECKTGNGKNYRGTMSKTKNGITCQKWSSTSPHRPRFSPATHPSEGLEENYCRNPDNDPQGPWCYTTDPEKRYDYCDILECEEECMHCSGENYDGKISKTMSGLECQAWDSQSPHAHGYIPSKFPNKNLKKNYCRNPDRELRPWCFTTDPNKRWELCDIPRCTTPPPSSGPTYQCLKGTGENYRGNVAVTVSGHTCQHWSAQTPHTHNRTPENFPCKNLDENYCRNPDGKRAPWCHTTNSQVRWEYCKIPSCDSSPVSTEQLAPTAPPELTPVVQDCYHGDGQSYRGTSSTTTTGKKCQSWSSMTPHRHQKTPENYPNAGLTMNYCRNPDADKGPWCFTTDPSVRWEYCNLKKCSGTEASVVAPPPVVLLPDVETPSEEDCMFGNGKGYRGKRATTVTGTPCQDWAAQEPHRHSIFTPETNPRAGLEKNYCRNPDGDVGGPWCYTTNPRKLYDYCDVPQCAAPSFDCGKPQVEPKKCPGRVVGGCVAHPHSWPWQVSLRTRFGMHFCGGTLISPEWVLTAAHCLEKSPRPSSYKVILGAHQEVNLEPHVQEIEVSRLFLEPTRKDIALLKLSSPAVITDKVIPACLPSPNYVVADRTECFITGWGETQGTFGAGLLKEAQLPVIENKVCNRYEFLNGRVQSTELCAGHLAGGTDSCQGDSGGPLVCFEKDKYILQGVTSWGLGCARPNKPGVYVRVSRFVTWIEGVMRNN
B2 was tested, and the “amount of full-length SHEL after plasmin digestion with a 100:1 molar excess of SPS-peptide, SDS-PAGE and densitometry (also seen with SHELδ26A, not shown)” value [2] was “more full-length SHEL was evident compared with controls using trypsin, plasmin, kallikrein and serum” and the “degradation of SHEL by human plasmin, SDS-PAGE” value [3] was “Major bands could be isolated using low concentration plasmin at 55, 45, 40, 34, 28, 22 and 18 kDa”.

B3: Gelatinase A (72 kDa gelatinase) (protein)
chain: YNFFPRKPKWDKNQITYRIIGYTPDLDPETVDDAFARAFQVWSDVTPLRFSRIHDGEADIMINFGRWEHGDGYPFDGKDGLLAHAFAPGTGVGGDSHFDDDELWTLGEGQVVRVKYGNADGEYCKFPFLFNGKEYNSCTDTGRSDGFLWCSTTYNFEKDGKYGFCPHEALFTMGGNAEGQPCKFPFRFQGTSYDSCTTEGRTDGYRWCGTTEDYDRDKKYGFCPETAMSTVGGNSEGAPCVFPFTFLGNKYESCTSAGRSDGKMWCATTANYDDDRKWGFCPDQGYSLFLVAAHEFGHAMGLEHSQDPGALMAPIYTYTKNFRLSQDDIKGIQELYGASPDIDLGTGPTPTLGPVTPEICKQDIVFDGIAQIRGEIFFFKDRFIWRTVTPRDKPMGPLLVATFWPELPEKIDAVYEAPQEEKAVFFAGNEYWIYSASTLERGYPKPLTSLGLPPDVQRVDAAFNWSKNKKTYIFAGDKFWRYNEVKKKMDPGFPKLIADAWNAIPDNLDAVVDLQGGGHSYFFKGAYYLKLENQSLKSVKFGSIKSDWLGC
B3 was tested, and the “digestion of SHEL by APMA-treated gelatinase A, SDS-PAGE” value [3] was “Digestion with gelatinase A and gelatinase B (each previously treated with APMA) of SHEL revealed SDS-PAGE patterns of preferentially digested fragments”.

B4: Gelatinase B (92 kDa gelatinase) (protein)
chain: MRTPRCGVPDLGRFQTFEGDLKWHHHNITYWIQNYSEDLPRAVIDDAFARAFALWSAVTPLTFTRVYSRDADIVIQFGVAEHGDGYPFDGKDGLLAHAFPPGPGIQGDAHFDDDELWSLGKGVVVPTRFGNADGAACHFPFIFEGRSYSACTTDGRSDGLPWCSTTANYDTDDRFGFCPSERLYTQDGNADGKPCQFPFIFQGQSYSACTTDGRSDGYRWCATTANYDRDKLFGFCPTRADSTVMGGNSAGELCVFPFTFLGKEYSTCTSEGRGDGRLWCATTSNFDSDKKWGFCPDQGYSLFLVAAHEFGHALGLDHSSVPEALMYPMYRFTEGPPLHKDDVNGIRHLYGPRPEPEPRPPTTTTPQPTAPPTVCPTGPPTVHPSERPTAGPTGPPSAGPTGPPTAGPSTATTVPLSPVDDACNVNIFDAIAEIGNQLYLFKDGKYWRFSEGRGSRPQGPFLIADKWPALPRKLDSVFEERLSKKLFFFSGRQVWVYTGASVLGPRRLDKLGLGADVAQVTGALRSGRGKMLLFSGRRLWRFDVKAQMVDPRSASEVDRMFPGVPLDTHDVFQYREKAYFCQDRFYWRVSSRSELNQVDQVGYVTYDILQCPED
B4 was tested, and the “digestion of SHEL by APMA-treated gelatinase B, SDS-PAGE” value [3] was “Digestion with gelatinase A and gelatinase B (each previously treated with APMA) of SHEL revealed SDS-PAGE patterns of preferentially digested fragments”.
